The values below come from patent US7629135B2, “Toll-like receptor agonists and antagonists and methods of use thereof” (The Board of Trustees of the University of Illinois, priority 2006, dated 2009).

For this assay, the system named is C57BL/6 mice. Briefly: Plasma G-CSF in SAA-injected mice (ELISA). It is filed as in vivo, mouse. How it is done:
SAA stimulates neutrophilia through G-CSF: To investigate whether SAA-induced G-CSF secretion contributes to neutrophilia, in vivo studies were conducted with daily administration of SAA in mice. C57BL/6 mice were injected subcutaneously (s.c.) with a daily dose of 120 μg SAA/kg body weight (˜3 μg of SAA each mouse) for 7 consecutive days. At different time points after the injection was initiated, blood neutrophil numbers were determined and the results were compared to neutrophil numbers prior to SAA administration. […] To establish a causal relationship between SAA-induced G-CSF production and neutrophilia in mice, wild-type C57BL/6 mice wre compared with csf3^−/− mice for changes in neutrophil count.
Measurement of G-CSF expression: To measure the secreted G-CSF from human monocytes and mouse macrophages in vitro, cells were placed in serum-free DMEM medium and stimulated with the indicated ligands. Cell-free supernatants were collected by centrifugation at 1,000×g for 30 sec and assayed for human or mouse G-CSF using ELISA. Human PBMC were used as 2×10^6 cells/ml/sample, and mouse BMDM were seeded at 10^6 cells/ml and used as 0.5 ml/sample. To measure mouse plasma G-CSF, blood samples were collected and centrifuged at 1,000-2,000×g for 10 min at 4° C. Plasma samples were appropriately diluted and then checked for G-CSF concentration using ELISA. […] Real-time quantitative PCR was performed on a ABI PRISM 7000 Sequence Detection System (Applied Biosystems) as described previously (He et al., 2006). All data were analyzed with the ABI PRISM 7000 SDS software (version 1.1). Relative level of mRNA for G-CSF was determined by normalizing with β-actin mRNA level. […]
SAA-induced neutrophilia: For analysis of SAA-induced neutrophil increase, SAA was injected subcutaneously into both G-CSF deficient (csf3^−/−) (n=5) and csf3^+/+ (n=5), age- and sex-matched littermates (8-9 weeks, male), at doses of 120 μg/kg/d in 200 μl PBS. […] Total white blood cell (WBC) count and WBC differential count were determined using a Hemavet 950FS multispecies hematology analyzer (Drew Scientific).

B1: SAA: Recombinant human SAA purchased from PeproTech; major acute-phase protein of 104 amino acids (protein, UniProt P0DJI8 19-122, looked up)
Serum amyloid A-1 protein: RSFFSFLGEAFDGARDMWRAYSDMREANYIGSDKYFHARGNYDAAKRGPGGAWAAEVITDARENIQRFFGHGAEDSLADQAANEWGRSGKDPNHFRPAGLPEKY
For B1, the “plasma G-CSF level” value (C57BL/6 mice, SAA 120 μg/kg s.c. daily, end of 7 days) is reported as “significantly elevated G-CSF level”. The “plasma G-CSF in tlr2−/− mice vs wild-type” value (SAA s.c. up to 7 days, 168 h) was “significantly less G-CSF”. In addition, the “plasma concentration of G-CSF, maximum” value (SAA-injected C57BL/6 mice, 168 h) was 97 pg/mL.
